{"source": "the supplement of paper PMC9112550", "about": "“Optimization of the antimicrobial peptide Bac7 by deep mutational scanning” (BMC Biology, 2022);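 further: peptides expressed intracellularly from a pBAD plasmid library in pooled LB shake-flask culture, induced with 0.3% L-arabinose, DNA abundance read by NGS, three biological replicates, DESeq2 with apeglm shrinkage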"}
{"tested_on": "Escherichia coli TOP10", "assay": "shrunken log2 fold change of peptide-encoding DNA abundance (4.5 h post-induction vs induction); higher = less antimicrobial activity (less host growth inhibition)", "conditions": "time post-induction: 4.5 h; library: site-saturation at positions 5, 18, 19, 20"}
{"sequence": "RRIRKRPPRLPRPRPRPTMYPRP", "shrunken log2 fold change": -0.0949}
{"sequence": "RRIRGRPPRLPRPRPRPFWPPRP", "shrunken log2 fold change": 0.653}
{"sequence": "RRIRFRPPRLPRPRPRPAYVPRP", "shrunken log2 fold change": 0.678}
{"sequence": "RRIRRRPPRLPRPRPRPHSMPRP", "shrunken log2 fold change": -0.118}
{"sequence": "RRIRTRPPRLPRPRPRPFNTPRP", "shrunken log2 fold change": -0.0686}
{"sequence": "RRIRERPPRLPRPRPRPSEKPRP", "shrunken log2 fold change": -0.0759}
{"sequence": "RRIRHRPPRLPRPRPRPNNKPRP", "shrunken log2 fold change": -0.75}
{"sequence": "RRIRDRPPRLPRPRPRPFVWPRP", "shrunken log2 fold change": 0.525}
{"sequence": "RRIRHRPPRLPRPRPRPDQWPRP", "shrunken log2 fold change": -0.108}
{"sequence": "RRIRYRPPRLPRPRPRPIKHPRP", "shrunken log2 fold change": -0.693}
{"sequence": "RRIRARPPRLPRPRPRPTDQPRP", "shrunken log2 fold change": 0.918}
{"sequence": "RRIRWRPPRLPRPRPRPDIEPRP", "shrunken log2 fold change": -0.0323}
{"sequence": "RRIRERPPRLPRPRPRPVNAPRP", "shrunken log2 fold change": -0.353}
{"sequence": "RRIRFRPPRLPRPRPRPCANPRP", "shrunken log2 fold change": 0.133}
{"sequence": "RRIRNRPPRLPRPRPRPMYQPRP", "shrunken log2 fold change": -0.201}
{"sequence": "RRIRKRPPRLPRPRPRPTVDPRP", "shrunken log2 fold change": -0.108}
{"sequence": "RRIRHRPPRLPRPRPRPYSHPRP", "shrunken log2 fold change": -0.129}
{"sequence": "RRIRDRPPRLPRPRPRPQHNPRP", "shrunken log2 fold change": -0.554}
{"sequence": "RRIRMRPPRLPRPRPRPLCRPRP", "shrunken log2 fold change": 0.359}
{"sequence": "RRIRRRPPRLPRPRPRPTNSPRP", "shrunken log2 fold change": 1.15}
{"sequence": "RRIRQRPPRLPRPRPRPFWAPRP", "shrunken log2 fold change": 0.289}
{"sequence": "RRIRCRPPRLPRPRPRPCIGPRP", "shrunken log2 fold change": -0.204}
{"sequence": "RRIRRRPPRLPRPRPRPYGPPRP", "shrunken log2 fold change": -0.64}
{"sequence": "RRIRPRPPRLPRPRPRPHQNPRP", "shrunken log2 fold change": -0.124}
{"sequence": "RRIRIRPPRLPRPRPRPFDYPRP", "shrunken log2 fold change": -0.182}
{"sequence": "RRIRERPPRLPRPRPRPECEPRP", "shrunken log2 fold change": 0.318}
{"sequence": "RRIRGRPPRLPRPRPRPTGTPRP", "shrunken log2 fold change": 0.517}
{"sequence": "RRIRVRPPRLPRPRPRPSSHPRP", "shrunken log2 fold change": -0.344}
{"sequence": "RRIRTRPPRLPRPRPRPIQEPRP", "shrunken log2 fold change": 0.0124}
{"sequence": "RRIRNRPPRLPRPRPRPELRPRP", "shrunken log2 fold change": 0.0572}
{"sequence": "RRIRGRPPRLPRPRPRPDWMPRP", "shrunken log2 fold change": 0.235}
{"sequence": "RRIRLRPPRLPRPRPRPVNPPRP", "shrunken log2 fold change": 0.0818}
{"sequence": "RRIRVRPPRLPRPRPRPGTQPRP", "shrunken log2 fold change": -0.183}
{"sequence": "RRIRRRPPRLPRPRPRPCCWPRP", "shrunken log2 fold change": 0.322}
{"sequence": "RRIRPRPPRLPRPRPRPQYFPRP", "shrunken log2 fold change": -0.0988}
{"sequence": "RRIRNRPPRLPRPRPRPIKLPRP", "shrunken log2 fold change": -0.0869}
{"sequence": "RRIRQRPPRLPRPRPRPVKYPRP", "shrunken log2 fold change": -0.067}
{"sequence": "RRIRDRPPRLPRPRPRPTPHPRP", "shrunken log2 fold change": 0.175}
{"sequence": "RRIRLRPPRLPRPRPRPHKTPRP", "shrunken log2 fold change": 0.0373}
{"sequence": "RRIRCRPPRLPRPRPRPAKNPRP", "shrunken log2 fold change": 0.00465}
{"sequence": "RRIRNRPPRLPRPRPRPRNSPRP", "shrunken log2 fold change": -0.0392}
{"sequence": "RRIRVRPPRLPRPRPRPSDNPRP", "shrunken log2 fold change": -0.878}
{"sequence": "RRIRQRPPRLPRPRPRPALHPRP", "shrunken log2 fold change": 1.38}
{"sequence": "RRIRFRPPRLPRPRPRPWYMPRP", "shrunken log2 fold change": -0.991}
{"sequence": "RRIRARPPRLPRPRPRPGWPPRP", "shrunken log2 fold change": 0.789}
{"sequence": "RRIRNRPPRLPRPRPRPQDFPRP", "shrunken log2 fold change": -0.0385}
{"sequence": "RRIRTRPPRLPRPRPRPKYMPRP", "shrunken log2 fold change": -0.15}
{"sequence": "RRIRSRPPRLPRPRPRPSSVPRP", "shrunken log2 fold change": -0.354}
{"sequence": "RRIRRRPPRLPRPRPRPQEYPRP", "shrunken log2 fold change": -0.0725}
{"sequence": "RRIRKRPPRLPRPRPRPAGWPRP", "shrunken log2 fold change": 0.893}
{"sequence": "RRIRPRPPRLPRPRPRPYATPRP", "shrunken log2 fold change": -0.446}
{"sequence": "RRIRKRPPRLPRPRPRPTRRPRP", "shrunken log2 fold change": 0.964}
{"sequence": "RRIRLRPPRLPRPRPRPYYKPRP", "shrunken log2 fold change": -0.569}
{"sequence": "RRIRERPPRLPRPRPRPKWKPRP", "shrunken log2 fold change": -0.0193}
{"sequence": "RRIRDRPPRLPRPRPRPCNTPRP", "shrunken log2 fold change": -0.224}
{"sequence": "RRIRIRPPRLPRPRPRPALEPRP", "shrunken log2 fold change": -0.0629}
{"sequence": "RRIRFRPPRLPRPRPRPKCMPRP", "shrunken log2 fold change": -0.967}
{"sequence": "RRIRQRPPRLPRPRPRPPLSPRP", "shrunken log2 fold change": 0.0729}
{"sequence": "RRIRCRPPRLPRPRPRPNFIPRP", "shrunken log2 fold change": -0.616}
{"sequence": "RRIRFRPPRLPRPRPRPSLEPRP", "shrunken log2 fold change": -0.0776}
{"sequence": "RRIRSRPPRLPRPRPRPEAYPRP", "shrunken log2 fold change": -0.141}
{"sequence": "RRIRSRPPRLPRPRPRPNWDPRP", "shrunken log2 fold change": -0.315}
{"sequence": "RRIRLRPPRLPRPRPRPRQSPRP", "shrunken log2 fold change": -0.0892}
{"sequence": "RRIRTRPPRLPRPRPRPDPGPRP", "shrunken log2 fold change": 0.0486}
{"sequence": "RRIRMRPPRLPRPRPRPGQRPRP", "shrunken log2 fold change": 1.08}
{"sequence": "RRIRVRPPRLPRPRPRPIRGPRP", "shrunken log2 fold change": 0.0551}
{"sequence": "RRIRGRPPRLPRPRPRPWGNPRP", "shrunken log2 fold change": 0.0898}
{"sequence": "RRIRMRPPRLPRPRPRPFFPPRP", "shrunken log2 fold change": "-1.89e-05"}
{"sequence": "RRIRRRPPRLPRPRPRPAVHPRP", "shrunken log2 fold change": 0.321}
{"sequence": "RRIRDRPPRLPRPRPRPWDDPRP", "shrunken log2 fold change": -0.249}
{"sequence": "RRIRHRPPRLPRPRPRPRLRPRP", "shrunken log2 fold change": 0.207}
{"sequence": "RRIRPRPPRLPRPRPRPYFTPRP", "shrunken log2 fold change": -0.882}
{"sequence": "RRIRPRPPRLPRPRPRPGYGPRP", "shrunken log2 fold change": 0.0799}
{"sequence": "RRIRTRPPRLPRPRPRPIAFPRP", "shrunken log2 fold change": -0.0138}
{"sequence": "RRIRKRPPRLPRPRPRPSTAPRP", "shrunken log2 fold change": -0.177}
